# Legend:
# SOX2 (Homo sapiens) = conditions: ChIP-qPCR, human HUES-6 ESCs
# OCT4 (Homo sapiens) = conditions: ChIP-qPCR, human HUES-6 ESCs
# Sox2 (Mus musculus) = Sox2 (Mus musculus) (UniProt P48432); conditions: ChIP-qPCR, undifferentiated mouse ESCs; 10-fold maximum after 3 days RA, none at 6 days
# [1] = molecular target: Oct4 (Pou5f1) (Mus musculus) (UniProt P20263); conditions: ChIP-qPCR, undifferentiated mouse ESCs; 10-fold maximum after 3 days RA, none at 6 days
# Oct4 (Pou5f1) (Mus musculus), sequence (P20263 whole entry): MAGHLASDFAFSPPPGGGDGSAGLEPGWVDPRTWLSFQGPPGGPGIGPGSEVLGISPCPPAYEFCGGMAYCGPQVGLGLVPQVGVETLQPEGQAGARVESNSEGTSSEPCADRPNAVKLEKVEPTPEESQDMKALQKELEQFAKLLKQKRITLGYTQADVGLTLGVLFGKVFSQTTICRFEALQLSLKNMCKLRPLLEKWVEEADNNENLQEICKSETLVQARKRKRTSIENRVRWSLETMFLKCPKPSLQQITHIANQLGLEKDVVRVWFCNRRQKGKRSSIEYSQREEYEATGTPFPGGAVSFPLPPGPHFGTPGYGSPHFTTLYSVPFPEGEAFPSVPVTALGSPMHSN
# Sox2 (Mus musculus), sequence (P48432 whole entry): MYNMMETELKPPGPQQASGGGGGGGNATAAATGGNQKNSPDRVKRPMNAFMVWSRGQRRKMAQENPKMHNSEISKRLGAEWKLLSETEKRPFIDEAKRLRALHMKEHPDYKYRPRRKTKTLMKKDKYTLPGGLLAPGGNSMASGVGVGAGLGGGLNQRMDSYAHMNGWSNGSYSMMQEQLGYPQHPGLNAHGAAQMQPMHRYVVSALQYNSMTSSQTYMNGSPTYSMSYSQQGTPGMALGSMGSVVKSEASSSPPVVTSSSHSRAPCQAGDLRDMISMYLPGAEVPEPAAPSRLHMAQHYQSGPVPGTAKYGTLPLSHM
Substance,binding signal (fold enrichment) (SOX2 (Homo sapiens)),binding signal (fold enrichment) (OCT4 (Homo sapiens)),binding signal (fold enrichment) (Sox2 (Mus musculus)),binding signal (fold enrichment) [1]
human NANOG promoter sox-oct region,6,6,–,–
mouse Nanog promoter oct-sox region (ChIP amplicon 2),–,–,< 37,< 43

# — US20090018059
